The text below walks through data of the supplement of paper PMC5998384.

In data set [1] the test system is HeLa Kyoto. The data set can be described thus: solubility in G1/S (NP-40 vs SDS abundance) (log2 ratio); higher = more soluble. The settings on record: cell cycle stage: G1/S.
Data set [2] has as its system HeLa Kyoto. Kind of data set: melting temperature (median over replicates), in situ; higher = more thermally stable.
Data set [3] relates to HeLa Kyoto. The data set can be described thus: solubility change mitosis vs G1/S (difference of NP-40 vs SDS log2 ratios) (log2 ratio difference); higher = more soluble in mitosis.
Data set [4] has as its system HeLa Kyoto. The data set can be described thus: thermal stability score vs G1/S (z-score of summed log2 fold changes over temperatures); higher = more thermally stable than in G1/S.
[5] abbreviates: cell cycle stage: early G1 (4.5 h after nocodazole release).
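For melting temperature (median over replicates), in situ in this document: HeLa Kyoto cells synchronized by double thymidine or nocodazole block, proteins quantified by TMT10plex mass spectrometry, three independent biological replicates.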
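For solubility change mitosis vs G1/S (difference of NP-40 vs SDS log2 ratios) in this document: synchronized HeLa Kyoto cells (double thymidine block for G1/S, nocodazole release for mitosis), protein amounts in NP-40 versus SDS lysates quantified by mass spectrometry, three biological replicates.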
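For solubility in G1/S (NP-40 vs SDS abundance) in this document: HeLa Kyoto cells arrested at G1/S by double thymidine block, proteins quantified by TMT10plex mass spectrometry in mild NP-40 versus SDS extracts, three biological replicates.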
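For thermal stability score vs G1/S (z-score of summed log2 fold changes over temperatures) in this document: synchronized HeLa Kyoto cells, proteins quantified by TMT10plex mass spectrometry, three biological replicates, mitosis taken 0.5 h after nocodazole release, G1/S directly after double thymidine block.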

In the case of “MWPQPRLPPRPAMSEETRQSKLAAAKKKLREYQQRNSPGVPTGAKKKKKIKNGSNPETTTSGGCHSPEDTPKDNAATLQPSDDTVLPGGVPSPGASLTSMAASQNHDADNVPNLMDETKTFSSTESLRQLSQQLNGLVCESATCVNGEGPASSANLKDLESRYQQLAVALDSSYVTNKQLNITIEKLKQQNQEITDQLEEEKKECHQKQGALREQLQVHIQTIGILVSEKAELQTALAHTQHAARQKEGESEDLASRLQYSRRRVGELERALSAVSTQQKKADRYNKELTKERDALRLELYKNTQSNEDLKQEKSELEEKLRVLVTEKAGMQLNLEELQKKLEMTELLLQQFSSRCEAPDANQQLQQAMEERAQLEAHLGQVMESVRQLQMERDKYAENLKGESAMWRQRMQQMSEQVHTLREEKECSMSRVQELETSLAELRNQMAEPPPPEPPAGPSEVEQQLQAEAEHLRKELEGLAGQLQAQVQDNEGLSRLNREQEERLLELERAAELWGEQAEARRQILETMQNDRTTISRALSQNRELKEQLAELQSGFVKLTNENMEITSALQSEQHVKRELGKKLGELQEKLSELKETVELKSQEAQSLQQQRDQYLGHLQQYVAAYQQLTSEKEVLHNQLLLQTQLVDQLQQQEAQGKAVAEMARQELQETQERLEAATQQNQQLRAQLSLMAHPGEGDGLDREEEEDEEEEEEEAVAVPQPMPSIPEDLESREAMVAFFNSAVASAEEEQARLRGQLKEQRVRCRRLAHLLASAQKEPEAAAPAPGTGGDSVCGETHRALQGAMEKLQSRFMELMQEKADLKERVEELEHRCIQLSGETDTIGEYIALYQSQRAVLKERHREKEEYISRLAQDKEEMKVKLLELQELVLRLVGDRNEWHGRFLAAAQNPADEPTSGAPAPQELGAANQQGDLCEVSLAGSVEPAQGEAREGSPRDNPTAQQIMQLLREMQNPRERPGLGSNPCIPFFYRADENDEVKITVI [GOLGA2]”, the “solubility in G1/S (log2)” value with HeLa Kyoto [1] is 0.522. For the same sequence, the melting temperature in the data set with HeLa Kyoto [2] (cell cycle stage: G1/S) and in the data set on HeLa Kyoto [2] (cell cycle stage: mitosis) was 48.9 °C throughout. The “solubility change mitosis (log2)” value in the data set on HeLa Kyoto [3] worked out at 0.0669. The thermal stability score came to 1.74 with HeLa Kyoto [4] (setting [5]) and 3.29 in the data set on HeLa Kyoto [4] (cell cycle stage: mitosis).

For the sequence “MASILRSPQALQLTLALIKPDAVAHPLILEAVHQQILSNKFLIVRMRELLWRKEDCQRFYREHEGRFFYQRLVEFMASGPIRAYILAHKDAIQLWRTLMGPTRVFRARHVAPDSIRGSFGLTDTRNTTHGSDSVVSASREIAAFFPDFSEQRWYEEEEPQLRCGPVCYSPEGGVHYVAGTGGLGPA [NME6]”, in the data set on HeLa Kyoto [1], the “solubility in G1/S (log2)” value came to 0.31. The results for the melting temperature in the data set on HeLa Kyoto [2] (cell cycle stage: G1/S) and in the data set with HeLa Kyoto [2] (cell cycle stage: mitosis) were 51.3 °C and 55.2 °C, respectively. Moreover, the “solubility change mitosis (log2)” value in the data set on HeLa Kyoto [3] came out at 0.636. For the same sequence, the values for the thermal stability score in the data set with HeLa Kyoto [4] (setting [5]) and in the data set on HeLa Kyoto [4] (cell cycle stage: mitosis) were -2.16 and -1.08, respectively.

Regarding “MVPSRRTWNLGATPSLRGLWRVGRAPEPEPGMARPAPAPASPAARPFPHTGPGRLRTGRGKDTPVCGDEDSSARSAARPALAQCRALSVDWAGPGSPHGLYLTLQVEHLKEKLISQAQEVSRLRSELGGTDLEKHRDLLMVENERLRQEMRRCEAELQELRTKPAGPCPGCEHSQESAQLRDKLSQLQLEMAESKGMLSELNLEVQQKTDRLAEVELRLKDCLAEKAQEEERLSRRLRDSHETIASLRAQSPPVKYVIKTVEVESSKTKQALSESQARNQHLQEQVAMQRQVLKEMEQQLQSSHQLTARLRAQIAMYESELERAHGQMLEEMQSLEEDKNRAIEEAFARAQVEMKAVHENLAGVRTNLLTLQPALRTLTNDYNGLKRQVRGFPLLLQEALRSVKAEIGQAIEEVNSNNQELLRKYRRELQLRKKCHNELVRLKGNIRVIARVRPVTKEDGEGPEATNAVTFDADDDSIIHLLHKGKPVSFELDKVFSPQASQQDVFQEVQALVTSCIDGFNVCIFAYGQTGAGKTYTMEGTAENPGINQRALQLLFSEVQEKASDWEYTITVSAAEIYNEVLRDLLGKEPQEKLEIRLCPDGSGQLYVPGLTEFQVQSVDDINKVFEFGHTNRTTEFTNLNEHSSRSHALLIVTVRGVDCSTGLRTTGKLNLVDLAGSERVGKSGAEGSRLREAQHINKSLSALGDVIAALRSRQGHVPFRNSKLTYLLQDSLSGDSKTLMVVQVSPVEKNTSETLYSLKFAERVRSVELGPGLRRAELGSWSSQEHLEWEPACQTPQPSARAHSAPSSGTSSRPGSIRRKLQPSGKSRPLPV [KIFC3]”, in the data set with HeLa Kyoto [1], the “solubility in G1/S (log2)” value was -0.0691. Further, the melting temperature in the data set on HeLa Kyoto [2] (cell cycle stage: G1/S) came out at 49.1 °C; in the data set with HeLa Kyoto [2] (cell cycle stage: mitosis), 47.3 °C. In the data set on HeLa Kyoto [3], the “solubility change mitosis (log2)” value was determined as 0.169. Moreover, the thermal stability score in the data set with HeLa Kyoto [4] (setting [5]) was determined as 0.116; in the data set on HeLa Kyoto [4] (cell cycle stage: mitosis), 0.946.

In the case of “MSYDYHQNWGRDGGPRSSGGGYGGGPAGGHGGNRGSGGGGGGGGGGRGGRGRHPGHLKGREIGMWYAKKQGQKNKEAERQERAVVHMDERREEQIVQLLNSVQAKNDKESEAQISWFAPEDHGYGTEVSTKNTPCSENKLDIQEKKLINQEKKMFRIRNRSYIDRDSEYLLQENEPDGTLDQKLLEDLQKKKNDLRYIEMQHFREKLPSYGMQKELVNLIDNHQVTVISGETGCGKTTQVTQFILDNYIERGKGSACRIVCTQPRRISAISVAERVAAERAESCGSGNSTGYQIRLQSRLPRKQGSILYCTTGIILQWLQSDPYLSSVSHIVLDEIHERNLQSDVLMTVVKDLLNFRSDLKVILMSATLNAEKFSEYFGNCPMIHIPGFTFPVVEYLLEDVIEKIRYVPEQKEHRSQFKRGFMQGHVNRQEKEEKEAIYKERWPDYVRELRRRYSASTVDVIEMMEDDKVDLNLIVALIRYIVLEEEDGAILVFLPGWDNISTLHDLLMSQVMFKSDKFLIIPLHSLMPTVNQTQVFKRTPPGVRKIVIATNIAETSITIDDVVYVIDGGKIKETHFDTQNNISTMSAEWVSKANAKQRKGRAGRVQPGHCYHLYNGLRASLLDDYQLPEILRTPLEELCLQIKILRLGGIAYFLSRLMDPPSNEAVLLSIRHLMELNALDKQEELTPLGVHLARLPVEPHIGKMILFGALFCCLDPVLTIAASLSFKDPFVIPLGKEKIADARRKELAKDTRSDHLTVVNAFEGWEEARRRGFRYEKDYCWEYFLSSNTLQMLHNMKGQFAEHLLGAGFVSSRNPKDPESNINSDNEKIIKAVICAGLYPKVAKIRLNLGKKRKMVKVYTKTDGLVAVHPKSVNVEQTDFHYNWLIYHLKMRTSSIYLYDCTEVSPYCLLFFGGDISIQKDNDQETIAVDEWIVFQSPARIAHLVKELRKELDILLQEKIESPHPVDWNDTKSRDCAVLSAIIDLIKTQEKATPRNFPPRFQDGYYS [DHX36]”, the “solubility in G1/S (log2)” value in the data set with HeLa Kyoto [1] is -0.25. The melting temperature in the data set with HeLa Kyoto [2] (cell cycle stage: G1/S) is 50.8 °C; in the data set with HeLa Kyoto [2] (cell cycle stage: mitosis) it was 51.5 °C. Further, the “solubility change mitosis (log2)” value in the data set with HeLa Kyoto [3] is -0.0322. Besides, the thermal stability score in the data set on HeLa Kyoto [4] (setting [5]) was determined as 0.36; in the data set with HeLa Kyoto [4] (cell cycle stage: mitosis), 0.349.

For “MAAALLARASGPARRALCPRAWRQLHTIYQSVELPETHQMLLQTCRDFAEKELFPIAAQVDKEHLFPAAQVKKMGGLGLLAMDVPEELGGAGLDYLAYAIAMEEISRGCASTGVIMSVNNSLYLGPILKFGSKEQKQAWVTPFTSGDKIGCFALSEPGNGSDAGAASTTARAEGDSWVLNGTKAWITNAWEASAAVVFASTDRALQNKGISAFLVPMPTPGLTLGKKEDKLGIRGSSTANLIFEDCRIPKDSILGEPGMGFKIAMQTLDMGRIGIASQALGIAQTALDCAVNYAENRMAFGAPLTKLQVIQFKLADMALALESARLLTWRAAMLKDNKKPFIKEAAMAKLAASEAATAISHQAIQILGGMGYVTEMPAERHYRDARITEIYEGTSEIQRLVIAGHLLRSYRS [ACADS]”, the “solubility in G1/S (log2)” value with HeLa Kyoto [1] is 0.191. The melting temperature with HeLa Kyoto [2] (cell cycle stage: G1/S) was 55.3 °C; with HeLa Kyoto [2] (cell cycle stage: mitosis), 53.9 °C. The “solubility change mitosis (log2)” value in the data set with HeLa Kyoto [3] is -0.159. In addition, the results for the thermal stability score with HeLa Kyoto [4] (setting [5]) and in the data set on HeLa Kyoto [4] (cell cycle stage: mitosis) were -1.85 and -3.37, respectively.
